Data: publication PMC9888277

B1: wild-type KHNYN-GFP [human] / ZAP-L (zinc finger antiviral protein, long isoform) [modified: C-terminal S-farnesylation; C-terminal S-farnesylation] [human (endogenous in HeLa)] (parent)
chain 1: MPTWGARPASPDRFAVSAEAENKVREQQPHVERIFSVGVSVLPKDCPDNPHIWLQLEGPKENASRAKEYLKGLCSPELQDEIHYPPKLHCIFLGAQGFFLDCLAWSTSAHLVPRAPGSLMISGLTEAFVMAQSRVEELAERLSWDFTPGPSSGASQCTGVLRDFSALLQSPGDAHREALLQLPLAVQEELLSLVQEASSGQGPGALASWEGRSSALLGAQCQGVRAPPSDGRESLDTGSMGPGDCRGARGDTYAVEKEGGKQGGPREMDWGWKELPGEEAWEREVALRPQSVGGGARESAPLKGKALGKEEIALGGGGFCVHREPPGAHGSCHRAAQSRGASLLQRLHNGNASPPRVPSPPPAPEPPWHCGDRGDCGDRGDVGDRGDKQQGMARGRGPQWKRGARGGNLVTGTQRFKEALQDPFTLCLANVPGQPDLRHIVIDGSNVAMVHGLQHYFSSRGIAIAVQYFWDRGHRDITVFVPQWRFSKDAKVRESHFLQKLYSLSLLSLTPSRVMDGKRISSYDDRFMVKLAEETDGIIVSNDQFRDLAEESEKWMAIIRERLLPFTFVGNLFMVPDDPLGRNGPTLDEFLKKPARTQGSSKAQHPSRGFAEHGKQQQGREEEKGSGGIRKTRETERLRRQLLEVFWGQDHKVDFILQREPYCRDINQLSEALLSLNF
chain 2: MADPEVCCFITKILCAHGGRMALDALLQEIALSEPQLCEVLQVAGPDRFVVLETGGEAGITRSVVATTRARVCRRKYCQRPCDNLHLCKLNLLGRCNYSQSERNLCKYSHEVLSEENFKVLKNHELSGLNKEELAVLLLQSDPFFMPEICKSYKGEGRQQICNQQPPCSRLHICDHFTRGNCRFPNCLRSHNLMDRKVLAIMREHGLNPDVVQNIQDICNSKHMQKNPPGPRAPSSHRRNMAYRARSKSRDRFFQGSQEFLASASASAERSCTPSPDQISHRASLEDAPVDDLTRKFTYLGSQDRARPPSGSSKATDLGGTSQAGTSQRFLENGSQEDLLHGNPGSTYLASNSTSAPNWKSLTSWTNDQGARRKTVFSPTLPAARSSLGSLQTPEAVTTRKGTGLLSSDYRIINGKSGTQDIQPGPLFNNNADGVATDITSTRSLNYKSTSSGHREISSPRIQDAGPASRDVQATGRIADDADPRVALVNDSLSDVTSTTSSRVDDHDSEEICLDHLCKGCPLNGSCSKVHFHLPYRWQMLIGKTWTDFEHMETIEKGYCNPGIHLCSVGSYTINFRVMSCDSFPIRRLSTPSSVTKPANSVFTTKWIWYWKNESGTWIQYGEEKDKRKNSNVDSSYLESLYQSCPRGVVPFQAGSRNYELSFQGMIQTNIASKTQKDVIRRPTFVPQWYVQQMKRGPDHQPAKTSSVSLTATFRPQEDFCFLSSKKYKLSEIHHLHPEYVRVSEHFKASMKNFKIEKIKKIENSELLDKFTWKKSQMKEEGKLLFYATSRAYVESICSNNFDSFLHETHENKYGKGIYFAKDAIYSHKNCPYDAKNVVMFVAQVLVGKFTEGNITYTSPPPQFDSCVDTRSNPSVFVIFQKDQVYPQYVIEYTEDKACVIS

Variants of: B1
Test: co-immunoprecipitation (GFP IP, immunoblot for endogenous ZAP, quantified)
Conditions: with ZAP-L (zinc finger antiviral protein, long isoform) [modified: C-terminal S-farnesylation, HeLa cell lysates, N = 3, parent: 1, read off a plot

Variant | ratio to parent
chain 1 L676Q F678E | 0.38
